Laboratory results as given in the supplement of paper PMC7877785.
± gives the uncertainty stated by the source.

Test: self-splicing fitness, log relative to wild type (ln ratio); higher = more splicing; Tetrahymena group I intron in knt gene, E. coli kanamycin selection, DiMSum; sequences stand for … in CUCUCU…GGAGGGAAAAGUUAUCAGGCAUGCACCUGGUAGCUAGUCUUUAAACCAAUAGAUUGCAUCGGUUUAAAAGGCAAGACCGUCAAAUUGCGGGAAAGGGGUCAACAGCCGUUCAGUACCAAGUCUCAGGGGAAACUUUGAGAUGGCCUUGCAAAGGGUAUGGUAAUAAGCUGACGGACAUGGUCCUAACCACGCAGCCAAGUCCUAAGUCAACAGAUCUUCUGUUGAUAUGGAUGCAGUUCACAGACUAAAUGUCGGUCGGGGAAGAUGUAUUCUUCUCAUAAGAUAUAGUCGGACCUCUCCUUAAUGGGAGCUAGCGGAUGAAGUGAUGCAACACUGGAGCCGCUGGGAACUAAUUUGUAUGCGAAAGUAUAUUGAUUAGUUUUGGAGUACUCGUGGUCG
Summary of the method: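 The eight P1ex-region nucleotides of an intron in the knt kanamycin-resistance gene on pET-22b(+) were all randomised and the library put into E. coli BL21(DE3). Six replicate transformations were grown overnight at 37°C or 30°C on LB agar with or without 25 μg/mL kanamycin, together with 100 μg/mL carbenicillin, 50 μM IPTG and 0.2% rhamnose. Colonies were pooled and amplicon-sequenced on an Illumina HiSeq 2500. Fitness from DiMSum is the error-weighted combination of wild-type-normalised replicate fold changes, kanamycin over none.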

Row | Sequence | self-splicing fitness (ln) (30 °C) | self-splicing fitness (ln) (37 °C)
1 | AUACAGCAAUAUUACGGUGU | -3.8 ± 0.2 | -2.18 ± 0.13
2 | AUACAGCAAUAUUACGUACU | -0.171 ± 0.059 | 0.38 ± 0.083
3 | AUACAGCAAUAUUACGUAGU | -1.34 ± 0.067 | -0.206 ± 0.083
4 | AUACAGCAAUAUUACGUCAA | -2.32 ± 0.15 | -1.05 ± 0.1
5 | AUACAGCAAUAUUACGUCCG | -1.75 ± 0.13 | -1.38 ± 0.17
6 | AUACAGCAAUAUUACGUCGA | -1.77 ± 0.13 | -1.23 ± 0.12
7 | AUACAGCAAUAUUACGUGCU | -3.03 ± 0.15 | -1.18 ± 0.12
8 | AUACAGCAAUAUUACGUGUG | -1.73 ± 0.051 | -0.977 ± 0.062
9 | AUACAGCAAUAUUACGUUCU | 0.212 ± 0.1 | -0.221 ± 0.12
10 | AUAGAGCAAUAUUACGAUAU | -0.196 ± 0.065 | 1.04 ± 0.082
11 | AUAGAGCAAUAUUACGCAAA | -2.79 ± 0.2 | -1.03 ± 0.18
12 | AUAGAGCAAUAUUACGCGUU | -1.47 ± 0.12 | -0.672 ± 0.13
13 | AUAGAGCAAUAUUACGCUCU | -2.65 ± 0.28 | -1.32 ± 0.42
14 | AUAGAGCAAUAUUACGGAUU | -0.783 ± 0.091 | -0.15 ± 0.14
15 | AUAGAGCAAUAUUACGGUCG | -1.65 ± 0.18 | -1.12 ± 0.23
16 | AUAGAGCAAUAUUACGUACG | -2.22 ± 0.2 | -1.53 ± 0.23
17 | AUAGAGCAAUAUUACGUCAC | -1.53 ± 0.22 | -0.0932 ± 0.22
18 | AUAGAGCAAUAUUACGUCGC | -2.68 ± 0.2 | -0.381 ± 0.18
19 | AUAGAGCAAUAUUACGUCUU | 0.446 ± 0.074 | 0.419 ± 0.087
20 | AUAGAGCAAUAUUACGUUGG | -4.04 ± 0.25 | -2.51 ± 0.19
21 | AUAGAGCAAUAUUACGUUUA | -0.804 ± 0.13 | -0.629 ± 0.14
22 | AUAGAGCAAUAUUACGUUUG | -1.43 ± 0.11 | -2 ± 0.21
23 | AUAUAGCAAUAUUACGAACC | -1 ± 0.27 | 0.205 ± 0.24
24 | AUAUAGCAAUAUUACGAAGA | -2.16 ± 0.4 | -1.98 ± 0.47
25 | AUAUAGCAAUAUUACGACAA | -0.546 ± 0.21 | 0.567 ± 0.18
26 | AUAUAGCAAUAUUACGACCG | -1.62 ± 0.22 | 0.433 ± 0.41

Row | Sequence | self-splicing fitness (ln) (30 °C) | self-splicing fitness (ln) (37 °C)
27 | AUAUAGCAAUAUUACGAGAA | -1.72 ± 0.34 | -0.73 ± 0.36
28 | AUAUAGCAAUAUUACGAGCC | -2.89 ± 0.32 | -2.08 ± 0.37
29 | AUAUAGCAAUAUUACGAUAG | -2.39 ± 0.22 | -1.51 ± 0.24
30 | AUAUAGCAAUAUUACGAUUC | -1.29 ± 0.19 | -0.0451 ± 0.23
31 | AUAUAGCAAUAUUACGCACC | -0.862 ± 0.2 | -0.94 ± 0.18
32 | AUAUAGCAAUAUUACGCGCU | 0.0604 ± 0.24 | -0.878 ± 0.38
33 | AUAUAGCAAUAUUACGCGGA | -1.65 ± 0.26 | -1.67 ± 0.17
34 | AUAUAGCAAUAUUACGCUAU | -2.98 ± 0.27 | -0.715 ± 0.24
35 | AUAUAGCAAUAUUACGCUGA | -1.3 ± 0.2 | -1.15 ± 0.24
36 | AUAUAGCAAUAUUACGGAUA | -2.76 ± 0.31 | -1.63 ± 0.3
37 | AUAUAGCAAUAUUACGGAUC | -1.55 ± 0.2 | 0.109 ± 0.26
38 | AUAUAGCAAUAUUACGGCCU | -0.457 ± 0.22 | -1.58 ± 0.39
39 | AUAUAGCAAUAUUACGGGCU | -2.22 ± 0.17 | -1.6 ± 0.21
40 | AUAUAGCAAUAUUACGGGGU | -2.23 ± 0.18 | -2.25 ± 0.29
41 | AUAUAGCAAUAUUACGGGUA | -2.09 ± 0.25 | -0.788 ± 0.19
42 | AUAUAGCAAUAUUACGUAAG | -1.61 ± 0.14 | -0.705 ± 0.19
43 | AUAUAGCAAUAUUACGUACC | -1.41 ± 0.2 | -0.927 ± 0.28
44 | AUAUAGCAAUAUUACGUCCU | -0.548 ± 0.11 | 0.119 ± 0.12
45 | AUAUAGCAAUAUUACGUGAA | -1.57 ± 0.28 | -0.717 ± 0.33
46 | AUAUAGCAAUAUUACGUGAC |  | -2.85 ± 0.32
47 | AUAUAGCAAUAUUACGUGUU | -4.26 ± 0.39 | -1.21 ± 0.18
48 | AUAUAGCAAUAUUACGUUAA | -2.76 ± 0.23 | -3.36 ± 0.37
49 | AUAUAGCAAUAUUACGUUCA | -0.388 ± 0.23 | -0.707 ± 0.23
50 | AUAUAGCAAUAUUACGUUGC | -2.4 ± 0.19 | -1.25 ± 0.23
51 | AUCAAGCAAUAUUACGAAUU | -3.12 ± 0.14 | -1.21 ± 0.14
52 | AUCAAGCAAUAUUACGAGUC | -3.08 ± 0.23 | -2.19 ± 0.24

Row | Sequence | self-splicing fitness (ln) (30 °C) | self-splicing fitness (ln) (37 °C)
53 | AUCAAGCAAUAUUACGAUCG | -3.37 ± 0.2 | -3.55 ± 0.28
54 | AUCAAGCAAUAUUACGAUGC | -2.01 ± 0.19 | -1.1 ± 0.23
55 | AUCAAGCAAUAUUACGAUUU | -0.487 ± 0.056 | -0.186 ± 0.072
56 | AUCAAGCAAUAUUACGCCCG | -0.965 ± 0.17 | -0.202 ± 0.2
57 | AUCAAGCAAUAUUACGCCUA | -0.765 ± 0.11 | -0.646 ± 0.095
58 | AUCAAGCAAUAUUACGGAAA | -2.58 ± 0.24 | -1.7 ± 0.21
59 | AUCAAGCAAUAUUACGGAAG | -2.78 ± 0.11 | -2.01 ± 0.12
60 | AUCAAGCAAUAUUACGGAUC | -3.29 ± 0.25 | -1.91 ± 0.21
61 | AUCAAGCAAUAUUACGGCCC | -0.747 ± 0.31 | 
62 | AUCAAGCAAUAUUACGGCCU | -0.508 ± 0.05 | 0.15 ± 0.066
63 | AUCAAGCAAUAUUACGGCUA | -0.209 ± 0.097 | 0.184 ± 0.11
64 | AUCAAGCAAUAUUACGGUUG | -3.05 ± 0.25 | -1.92 ± 0.19
65 | AUCAAGCAAUAUUACGUAAU | -1.1 ± 0.056 | -0.247 ± 0.081
66 | AUCAAGCAAUAUUACGUAGU | -2.22 ± 0.08 | -1.14 ± 0.097
67 | AUCAAGCAAUAUUACGUCAC | -2.32 ± 0.16 | -2.28 ± 0.3
68 | AUCAAGCAAUAUUACGUCAU | -2.05 ± 0.088 | -1.45 ± 0.088
69 | AUCAAGCAAUAUUACGUCGU | -1.5 ± 0.052 | -0.574 ± 0.071
70 | AUCAAGCAAUAUUACGUGCC | -1.51 ± 0.14 | -0.426 ± 0.16
71 | AUCAAGCAAUAUUACGUGCU | -2.33 ± 0.088 | -1.7 ± 0.11
72 | AUCAAGCAAUAUUACGUGGC | -4.3 ± 0.37 | -3.52 ± 0.35
73 | AUCCAGCAAUAUUACGAAUA | -1.44 ± 0.13 | -0.957 ± 0.13
74 | AUCCAGCAAUAUUACGAAUG | -1.94 ± 0.12 | -1.36 ± 0.11
75 | AUCCAGCAAUAUUACGACUG | -3.86 ± 0.3 | -2.95 ± 0.28
76 | AUCCAGCAAUAUUACGAGAG | -1.45 ± 0.098 | -1.05 ± 0.1
